By EC50 is commonly meant the midpoint of the concentration-response curve. The EC50 (read off the curve) is the midpoint of the concentration-response curve. The Kd is the concentration at which binding is half-saturated. For orientation: koff means the rate constant with which the complex falls apart. In general, kon refers to a measure of how fast the partners come together.

Test [1] has as its target T1, recombinant human endotrophin (77 amino acids at the carboxy-terminal of the COL6α3 chain, HEK293-expressed, … (human, UniProt P12111 3101-3177)).
T1 construct: the His-tag was removed by enterokinase, leaving the 77 amino acid endotrophin free of tags; also called ETP; recombinant endotrophin protein
As to the kind of experiment: ELISA titration on plate-coated recombinant endotrophin, 4-parameter fit. The protocol:
(§1) Antibody-antigen ELISA Binding Assay. Corning 96-well EIA/RIA plates were coated overnight at 4° C. with HEK293 expressed recombinant endotrophin (1 μg/mL) and blocked for 2 hr at 37° C. with 5% non-fat milk. After washing with PBST for 3 times, 100 μL of serial diluted anti-endotrophin antibodies were added and incubated for 45 min at 37° C. Subsequently, the plates were washed with PBST and incubated for 30 min with anti-rabbit or anti-human F(ab′)2 HRP-conjugated antibody (Jackson ImmunoResearch Laboratories). The immunoreactions were developed with TMB substrates (Sigma) and stopped by the addition of 2 M sulfuric acid before reading the plate at 450 nm.
(§2) Binding of endotrophin by monoclonal antibodies was first screened by ELISA using supernatants collected from the B cell cultures (FIG. 10). ELISA titration was used to determine the binding affinity of a panel of monoclonal antibodies to endotrophin antigen (FIG. 11). Binding constants (EC₅₀) of a panel of monoclonal antibodies were estimated using four-parameter curve fitting with Prism GraphPad (Table 3).
(ELISA stands for enzyme-linked immunosorbent assay.)

Test [2] addresses T1, recombinant human endotrophin (77 amino …). Description: ELISA titration, plate coated with recombinant endotrophin, serially diluted antibody, HRP secondary antibody, OD450. As to the method: as §1, §2
The target is the same in test [3]. Description: BLI (Octet RED96).
The target is the same in test [4]. Description: BLI (Octet RED96), antibody on protein A biosensors, endotrophin 0.1-200 nM, 1:1 fit. The protocol:
Following a short baseline in kinetics buffer, the loaded biosensors were exposed to a series of recombinant endotrophin protein at 0.1-200 nM and background subtraction was used to correct for sensor drifting. All experiments were performed with shaking at 1,000 rpm. Background wavelength shifts were measured from reference biosensors that were loaded only with antibody. Kinetic sensorgrams for each antibody are shown in FIGS. 12A&B. ForteBio's data analysis software was used to fit the data to a 1:1 binding model to extract an association rate and dissociation rate.
A general note: In BLI a coated tip is dipped into the sample, and binding shifts an interference pattern.

Where a chain is given by its changes, count along the chain named.

T1 sequence (P12111 3101-3177 limits assumed): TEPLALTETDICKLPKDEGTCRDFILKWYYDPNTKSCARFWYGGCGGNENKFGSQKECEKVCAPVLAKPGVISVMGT

B1: ETP-mAb4 (antibody, V domains shown)
VH: SSRVKESGGDLVKPGASLTLTCKASGFSFSSGYYICWVRQAPGKGLEWIACIYGGNNNPYYANWVNGRFTTSKTSSTTVTLQMTNLTGADTATYFCARKDINIGGAYELWGPGTLVTISS
VL: ELVMTQTPASVSEPVGGTVTINCQASQSISSSYLSWYQQKPGQPPKLLIYKASTLASGVPSRFKGSGSGTQFSLTISDLECADAATYYCQYSDWANSYGNAFGGGTEVVVK
notes: Rabbit monoclonal; also called parental rabbit ETPmAb4
With B1, in test [1], the EC50 turned out to be 0.054 mg/L. In addition, in test [2], the “EC50 (read off the curve)” value was around 0.06 mg/L. Moreover, in test [3], the Kd was 1.62 nM. In test [4], the Kd came to 1.75 nM, the off-rate constant (koff) was determined as 0.000249 s⁻¹ and the kon turned out to be 142000 M⁻¹ s⁻¹.

B2: ETP-mAb10 (antibody, V domains shown)
VH: QSLEESGGGLVQPEGSLTLTCTASGFSFSRGDYMCWVRQAPGKGLEWIGWIDVGRDNDSYYATWAKGRFSISKTSSTTVTLQMTSLTVADTATYFCARDLGFDTNLWGPGTLVTVSS
VL: ELDMTQTPASVSAAVGGTVTINCQASQNINSWLSWYQQKPGQPPKLLIYQASKLASGVPSRLKGSGSGTQFSLTISDLECADGATYYCQSYDYRSSGNGGNVFGGGTEVEIK
notes: Rabbit monoclonal
B2: the half-maximal effective concentration (EC50) in test [1] was determined as 0.142 mg/L. Moreover, the “EC50 (read off the curve)” value in test [2] is around 0.1 mg/L.

B3: ETP-mAb72 (antibody, V domains shown)
VH: B2 VH with M34V, R55S, D56V, N57I, D58E, S70T
VL: ELVMTQTPASVEAAVGGTVTINCQASESISIYLNWYQQKPGQPPKLLIYQASKLASGVPSRFKGSGSGTEFTLTISDLECADAATYYCQSHDYRIGRSDCNVFGGGTNVEIK
notes: Rabbit monoclonal
Regarding B3, the EC50 in test [1] is 0.306 mg/L. In addition, the “EC50 (read off the curve)” value in test [2] was around 0.3 mg/L.

B4: ETP-mAb4.1 (humanized ETP-hMab4) (antibody, human IgG1, V domains shown)
VH: EVQLLESGGGLVQPGGSLRLSCAASGFSFSSGYYICWVRQAPGKGLEWIACIYGGNNNPYYANWVNGRFTISRDNSKNTLYLQMNSLRAEDTAVYYCARKDINIGGAYELWGQGTLVTVSS
VL: DIQMTQSPSSLSASVGDRVTITCQASQSISSSYLSWYQQKPGKAPKLLIYKASTLASGVPSRFSGSGSGTDFTLTISSLQPEDFATYYCQYSDWANSYGNAFGGGTKVEIK
notes: Humanized; tied by the number 4.1; also called ENT-hMab4.1
Consider B4, for which, in test [4], the Kd was 2.03 nM, the koff came out at 0.000235 s⁻¹ and the kon was 116000 M⁻¹ s⁻¹.

B5: ETP-mAb4.5 (humanized ETP-hMab4) (antibody, human IgG1, V domains shown)
VH: B4 VH with S28T, N57S
VL: B4 VL
notes: also called ENT-hMab4.5
Regarding B5, in test [4], the Kd came to 1.92 nM, the koff was determined as 0.000223 s⁻¹ and the kon was determined as 116000 M⁻¹ s⁻¹.

B6: ETP-mAb4.4 (humanized ETP-hMab4) (antibody, human IgG1, V domains shown)
VH: B4 VH with I71T
VL: B4 VL
notes: also called ENT-hMab4.4
For the molecule B6, in test [4], the Kd was 2.53 nM, the koff was determined as 0.000328 s⁻¹ and the on-rate constant (kon) was 130000 M⁻¹ s⁻¹.

B7: ETP-mAb4.2 (humanized ETP-hMab4) (antibody, human IgG1, V domains shown)
VH: B4 VH with N57S
VL: B4 VL
notes: also called ENT-hMab4.2
With B7, in test [4], the Kd amounted to 2.48 nM, the koff came out at 0.000305 s⁻¹ and the kon stood at 123000 M⁻¹ s⁻¹.

B8: ETP-mAb1 (antibody, V domains shown)
VH: QSVKESGGDLVKPGASLTLTCTASGIDFSAGYYMCWVRQAPGKGLELIACIYAGRSLNTFYASWAKGRFTISRASSTTVTLAMTSLTAADTATYFCARDGASSGYYFKLWGPGTLVTISS
VL: ELDMTQTPASVEVAVGGTVTIKCQASQSIGSNLAWYQQKPGQRPNVLIYDASNLASGVSSRFKGSGSGTQFTLTISGGECADAATYYCQQGYSDNYLDNAFGGGTEVVVK
notes: Rabbit monoclonal
Take B8: the EC50 in test [1] was 0.023 mg/L. For the same molecule, the “EC50 (read off the curve)” value in test [2] was around 0.02 mg/L.

B9: ETP-mAb11 (antibody, V domains shown)
VH: QSVKESEGGLVQPEGSLTLTCTASGFSFSSSYYMCWVRQAPGKGLEWIGCIYLGNNENTAYTSWAKGRFTISKTSSTTVTLQMTSLTAADTTTYFCARDTSGGSDYYFGLWGPGTLVTISS
VL: ELDLTQTPASVEVAVGGTVTIKCQASHRIKTYLAWYQQKPGQPPKLLIYGASTLASGVPSRFKGSGSGTQFTLTISGVECADAATYYCQQGYSDGNVDNVFGGGTEVEIK
notes: Rabbit monoclonal
As for B9, the EC50 in test [1] turned out to be 0.359 mg/L. The “EC50 (read off the curve)” value in test [2] is around 0.4 mg/L.

B10: ETP-mAb2 (antibody, V domains shown)
VH: EQSLEESEGGLVQPEGSLTLTCTASGFSFSRSDYMCWVRQAPGKGLEWIGWIDPGYSDTYYASWAQGRTTISKASSTTVTLQMTSLTVADTATYFCARDLGFDSNLWGPGTLVTISS
VL: ELDLTQTPASVSEPVGGTVTIKCQASQSINSYLSWYQQKPGQPPKLLIYQASKLASGVPSRFKGSGSGTQFTLTISDLECADAATYYCQSYDYRISGSDGNVFGGGTNVEIK
notes: Rabbit monoclonal
Consider B10, for which the EC50 in test [1] was 0.1 mg/L. In addition, the “EC50 (read off the curve)” value in test [2] is around 0.1 mg/L.

B11: ETP-mAb6 (antibody, V domains shown)
VH: QSVKESEGGLVQPEGSLTLTCTASGFSFSNSDYMCWVRQAPGKGLEWIGWIDLVGNTNSYYASWAKGRFTISKTSSTTVALQMTSLTVADTATYFCARDLGFDTNLWGPGTLVTVSS
VL: ELDLTQTPASVSAAVGGTVTINCQASQNINSWLSWYQQKPGQRPKLLIYQASKLPSGVPSRFKGSGSGTQFTLTISDLECADAATYYCQSHDYRTTGSYGNVFGGGTEVEIK
notes: Rabbit monoclonal
In the case of B11, the EC50 in test [1] stood at 0.053 mg/L. Besides, the “EC50 (read off the curve)” value in test [2] is around 0.06 mg/L.

The record behind these values is patent US20220056124A1 (University of Texas, published 2022).
